Experimental data as given in patent publication US20080248995, “Modulation of PPARgamma2 gene promoter by FOXO1” (Technion Research and Development Foundation Ltd., published 2008).

Key:
[1] = biological target: FOXO1 (FLAG-tagged, transfected) (Homo sapiens) (UniProt Q12778); experiment: cell_activity; conditions: 3xIRS-LUC in primary rat adipocytes, data not shown
[2] = biological target: T1, FOXO1 (FLAG-tagged, full-length) (Homo sapiens, UniProt Q12778 SEQ:126-780); experiment: EMSA; competed by 100x and 200x unlabeled probe; supershift with anti-FLAG and anti-FOXO1 H-128, not N-18; 50 mM KCl, 1 mM EDTA, pH 7.9, poly(dI-dC), 25 C; conditions: tags: FLAG; TnT reticulocyte lysate; label: 32P
T1 chain: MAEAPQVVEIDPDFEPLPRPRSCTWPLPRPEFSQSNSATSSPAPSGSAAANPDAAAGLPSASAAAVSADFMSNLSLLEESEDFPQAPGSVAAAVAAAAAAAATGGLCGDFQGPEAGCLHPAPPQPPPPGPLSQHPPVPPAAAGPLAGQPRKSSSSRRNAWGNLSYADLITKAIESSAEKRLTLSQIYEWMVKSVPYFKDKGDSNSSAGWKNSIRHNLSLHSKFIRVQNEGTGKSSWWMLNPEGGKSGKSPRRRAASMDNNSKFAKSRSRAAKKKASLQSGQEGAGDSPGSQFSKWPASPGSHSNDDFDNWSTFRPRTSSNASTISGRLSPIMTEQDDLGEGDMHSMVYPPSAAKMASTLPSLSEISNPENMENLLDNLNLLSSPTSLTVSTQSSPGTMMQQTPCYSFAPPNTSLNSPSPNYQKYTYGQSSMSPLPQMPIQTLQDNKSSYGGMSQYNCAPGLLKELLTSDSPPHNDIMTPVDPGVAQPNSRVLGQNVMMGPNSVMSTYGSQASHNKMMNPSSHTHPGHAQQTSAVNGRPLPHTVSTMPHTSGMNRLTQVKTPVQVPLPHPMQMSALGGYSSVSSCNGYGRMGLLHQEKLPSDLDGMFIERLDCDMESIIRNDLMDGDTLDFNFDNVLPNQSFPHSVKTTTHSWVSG
Method: (vi) In vitro Translation and Electrophoretic Mobility Shift Assay (EMSA)—In vitro translation of FOXO1 proteins and EMSA studies were performed as described (Armoni et al., 2003). The TnT SP6/T7-coupled reticulocyte lysate system (Promega, Madison Wis.) was used to generate in vitro translated FLAG-tagged FOXO1 proteins from the corresponding cDNA, and the resulting protein lysate was used in EMSA. Protein expression was confirmed by SDS-PAGE, followed by phosphorimaging analysis of proteins translated in the presence of ³⁵S-methionine (cell labeling grade; Amersham, Buckinghamshire, UK). In vitro translation reactions generated sufficient protein to use in EMSA studies. Sense and antisense PPARγ promoter-derived oligonucleotides were synthesized that correspond to bp 270-310 of hG2-587 (sense: […] TGGGT […]) (SEQ ID NO: 4); these were annealed and end-labeled with γ-³²P-ATP (6000 Ci/mmol; Amersham, Buckinghamshire, UK) in the presence of polynucleotide kinase. Protein-DNA binding reactions were assembled in a total volume of 20 μl, which included 4 μl of the in vitro translated FOXO1 lysate, radiolabeled probe (˜75,000 cpm), and 4 μg of poly(dI-dC) in a buffer containing 10 mM HEPES (pH 7.9), 1 mM dithiothreitol, 1 mM EDTA, 4% Ficoll, and 50 mM KCl. […] Gels were fixed in 10% acetic acid for 15 min, dried, and analyzed by phosphorimaging.

3xIRS (three insulin response element repeats) in pGL2-LUC
activity (fold activation) [1]: < 8.5

B1: hPPARγ2 promoter bp 270-310 (dsDNA)
DNA 1: GACACTGAACATGTGGGTCACCGGCGAGACAGTGTGGCAA
DNA 2: TTGCCACACTGTCTCGCCGGTGACCCACATGTTCAGTGTC
binding result [2]: binds
